Experimental findings from patent US20030082736A1 (IMMUNEX, published 2003) are described below.

The experiment deals with T1, TNF (125I-TNF) (human, UniProt P01375 77-233, limits assumed, radioiodinated (125I) where used as labeled ligand).
T1 construct: It may be the same FLAG-TNFα as m1; also called 125I-labeled TNF
In words: TNF binding assay on product of transfected COS-7 cells.

T1 sequence (P01375 77-233 limits assumed): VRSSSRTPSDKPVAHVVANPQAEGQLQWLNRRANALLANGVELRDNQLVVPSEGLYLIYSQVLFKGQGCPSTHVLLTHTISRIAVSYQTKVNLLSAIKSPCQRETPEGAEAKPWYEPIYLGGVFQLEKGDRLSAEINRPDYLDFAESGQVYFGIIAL

B1: soluble huTNF-RΔ142 (receptor)
chain: LPAQVAFTPYAPEPGSTCRLREYYDQTAQMCCSKCSPGQHAKVFCTKTSDTVCDSCEDSTYTQLWNWVPECLSCGSRCSSDQVETQACTREQNRICTCRPGWYCALSKQEGCRLCAPLRKCRPGFGVARPGTETSDVVCKPC
notes: Transfected into COS-7 cells; also called huTNF-R?142; product of psolTNFRΔ142/CAVNOT
Consider B1, for which the binding result is “no binding”.
